The text below walks through data of paper PMC6952207, “Development and Evaluation of a Novel Protein-Based Assay for Specific Detection of KPC β-Lactamases from Klebsiella pneumoniae Clinical Isolates” (mSphere, 2020).

Targets include CTX-M-15 β-lactamase (UniProt Q9EXV5); KPC-3 β-lactamase (UniProt Q9F663); KPC-4 β-lactamase (UniProt Q9F663); KPC-5 β-lactamase (UniProt Q9F663); KPC-6 β-lactamase (UniProt Q9F663); KPC-7 β-lactamase (UniProt Q9F663); KPC-8 β-lactamase (UniProt Q9F663); KPC-9 β-lactamase (UniProt Q9F663).
Holding throughout (assay): enzyme inhibition assay (nitrocefin hydrolysis); β-lactamase (0.2 to 1 nM) mixed with increasing concentrations of BLIP^K74T/W112D in 50 mM sodium phosphate pH 7.0, 100 μg/ml BSA, room temperature, 20 min; initial nitrocefin hydrolysis rates at 482 nm fitted to the Morrison tight binding inhibitor equation
Assay [1] has as its target CTX-M-14 β-lactamase (enzyme of the Ki assay) (UniProt Q9L5C7).
In assay [2] the target is TEM-1 β-lactamase (enzyme of the Ki assay) (UniProt P62593).
For the next assay, the target named is T1, OXA-48 carbapenemase (UniProt Q6XEC0 23-265).
T1 construct: OXA-48 carbapenemase (β-lactamase)
The conditions noted are these: both partners purified.

Assay [3] has as its target T2, KPC-2 β-lactamase (purified) (UniProt Q9F663 30-293).
T2 construct: KPC-2 carbapenemase (class A β-lactamase); also called KPC-2 carbapenemase; source: E. coli BL21(DE3) (pET-28a+), purified (Co2+ Talon resin, Superdex75 gel filtration)
Conditions: both partners purified.

What is called Ki is the dissociation constant of the complex between target and ligand, obtained from inhibition or displacement. A higher Ki goes with lower affinity. On to “β-lactamase inhibitory protein variant BLIP^K74T/W112D (from UniProt P35804 37-201) (natural protein)”, for which the Ki in assay [1] stood at 908 nM; with CTX-M-15 β-lactamase, 433 nM; with KPC-3 β-lactamase it was 2.5 nM; in the assay with KPC-4 β-lactamase, 1.2 nM; in the assay with KPC-5 β-lactamase, 1.5 nM; with KPC-6 β-lactamase, 1.3 nM. Also, the Ki with KPC-7 β-lactamase came to 1.5 nM; in the assay with KPC-8 β-lactamase, 1.6 nM; with KPC-9 β-lactamase, 0.7 nM; in [2] it was 6240 nM.

B1: β-lactamase inhibitory protein variant BLIP^K74T/W112D (natural protein)
chain: AGVMTGAKFTQIQFGMTRQQVLDIAGAENCETGGSFGDSIHCRGHAAGDYYAYATFGFTSAAADAKVDSKSQETLLAPSAPTLTLAKFNQVTVGMTRAQVLATVGQGSCTTDSEYYPAYPSTAGVTLSLSCFDVDGYSSTGFYRGSAHLWFTDGVLQGKRQWDLV
notes: the variant was found there by mutagenesis and genetic screening; also called BLIP mutant; source: E. coli RB791 (plasmid pGR32), purified (Co2+ Talon resin, Superdex75 gel filtration); not shown: His6, N-terminal, kept
Regarding B1, the inhibitory constant (Ki) in the assay with OXA-48 carbapenemase was 1180 ± 129 nM; in assay [3] it was 2.4 ± 0.4 nM.
